The target of this experiment is anti-PD-L1×avβ3 dual function antibody (B1451). Nature of the experiment: SPR; Biacore T200; B1451 captured at about 35 RU on anti-human IgG (Fc) immobilised on a CM5 chip; human αvβ3 injected, 2-fold dilutions 12.5-400 nM, association 120 s; regeneration 10 mM glycine-HCl pH 1.5; 1:1 binding model. Background: Surface plasmon resonance follows binding to a sensor surface in real time, without labels.

As usually defined, the Kd is the equilibrium constant for the complex coming apart. Lower therefore signals tighter binding.

Chain of human αvβ3 (P06756 31-1048): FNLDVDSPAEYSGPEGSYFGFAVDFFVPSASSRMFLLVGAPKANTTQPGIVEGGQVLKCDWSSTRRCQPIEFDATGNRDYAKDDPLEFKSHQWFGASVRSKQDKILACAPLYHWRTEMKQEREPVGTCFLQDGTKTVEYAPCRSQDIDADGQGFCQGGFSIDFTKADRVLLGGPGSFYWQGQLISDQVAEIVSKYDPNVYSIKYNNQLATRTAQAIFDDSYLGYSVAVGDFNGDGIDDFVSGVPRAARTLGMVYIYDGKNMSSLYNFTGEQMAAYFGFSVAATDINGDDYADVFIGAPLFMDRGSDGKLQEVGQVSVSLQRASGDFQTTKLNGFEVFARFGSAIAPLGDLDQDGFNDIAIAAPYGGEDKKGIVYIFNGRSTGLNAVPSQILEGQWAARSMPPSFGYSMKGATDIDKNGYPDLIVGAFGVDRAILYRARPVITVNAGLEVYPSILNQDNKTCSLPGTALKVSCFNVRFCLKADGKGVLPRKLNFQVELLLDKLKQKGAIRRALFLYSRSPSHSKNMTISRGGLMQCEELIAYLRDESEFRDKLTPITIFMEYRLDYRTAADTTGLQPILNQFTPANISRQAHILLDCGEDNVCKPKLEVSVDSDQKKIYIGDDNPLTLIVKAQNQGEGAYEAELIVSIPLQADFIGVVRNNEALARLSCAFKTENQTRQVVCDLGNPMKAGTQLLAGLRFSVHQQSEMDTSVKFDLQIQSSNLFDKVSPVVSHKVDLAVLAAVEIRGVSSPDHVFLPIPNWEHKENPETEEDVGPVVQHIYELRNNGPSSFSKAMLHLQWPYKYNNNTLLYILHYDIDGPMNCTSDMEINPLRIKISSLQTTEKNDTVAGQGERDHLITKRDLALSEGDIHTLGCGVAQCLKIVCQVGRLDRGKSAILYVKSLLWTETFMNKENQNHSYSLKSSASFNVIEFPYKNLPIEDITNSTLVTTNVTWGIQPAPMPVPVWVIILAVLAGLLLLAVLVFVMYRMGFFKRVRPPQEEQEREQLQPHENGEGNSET
Chain of human αvβ3 (P05106 27-718): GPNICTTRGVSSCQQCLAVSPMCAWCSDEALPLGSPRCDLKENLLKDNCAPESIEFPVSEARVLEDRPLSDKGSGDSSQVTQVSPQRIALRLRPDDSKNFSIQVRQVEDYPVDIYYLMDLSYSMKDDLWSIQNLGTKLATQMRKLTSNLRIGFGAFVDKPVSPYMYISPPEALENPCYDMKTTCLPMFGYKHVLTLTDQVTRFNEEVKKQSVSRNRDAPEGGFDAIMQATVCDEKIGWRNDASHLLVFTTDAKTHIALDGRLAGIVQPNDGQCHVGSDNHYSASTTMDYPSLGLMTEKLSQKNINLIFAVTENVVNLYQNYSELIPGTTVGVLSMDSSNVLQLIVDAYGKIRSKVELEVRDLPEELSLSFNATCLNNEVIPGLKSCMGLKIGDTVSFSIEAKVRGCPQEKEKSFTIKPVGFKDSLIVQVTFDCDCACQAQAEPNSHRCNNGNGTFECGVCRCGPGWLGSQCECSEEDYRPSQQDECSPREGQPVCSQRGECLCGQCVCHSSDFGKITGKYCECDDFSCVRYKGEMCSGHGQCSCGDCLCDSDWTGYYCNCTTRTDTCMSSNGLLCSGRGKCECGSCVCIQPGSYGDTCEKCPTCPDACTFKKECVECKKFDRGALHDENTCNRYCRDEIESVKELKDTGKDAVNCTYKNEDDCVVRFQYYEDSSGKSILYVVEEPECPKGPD

Substance “human αvβ3 (from UniProt P06756 31-1048; P05106 27-718) (complex)” had a Kd of 15.5 µM.

For the origin of these results see PMC12833063.
